In paper PMC7069228, “Targeted cell imaging properties of a deep red luminescent iridium(III) complex conjugated with a c-Myc signal peptide” (Chemical Science, 2020):
Entries after “also recorded” stand apart in the source; their conditions may differ.

How the values were obtained:
[1] = Longer term stability in water by UV-vis absorption spectra; format: physicochemical
Description: Our previous studies on Ir(III) complexes have shown that the use of substituted, cyclometalated quinoxaline ligands can impart red luminescence characteristics.[25] Firstly, the UV-vis absorption and emission spectral characteristics of Ir-PYR were determined. […] By inference, ligand-centred transitions are assumed to dominate below 350 nm, with both quinoxaline and bipyridine located π → π* contributing to the spectrum. At 350–450 nm it is likely that spin-allowed metal-to-ligand (5d-to-π*) charge transfers (^1MLCT) are present, with a weaker (ε < 1000 M^–1 cm^–1) shoulder feature at 450–600 nm, which is presumably due to a spin forbidden (S0 → T1) ^3MLCT absorption. […] To assess longer term stability in water, UV-vis absorption spectra of an aqueous solution (stored at 25 °C in light) of Ir-CMYC were recorded at 0, 24, 48 and 72 h (Fig. S4, ESI ^†).

human fibroblast cells [2] = assay: Confocal fluorescence microscopy: cell uptake and localisation; format: cell-based; conditions: human fibroblasts
Description: The non-peptide functionalised complex Ir-PYR was investigated at a range of concentrations (1, 5, 20, 50, 80, 100 μM) with respect to cell uptake, localization and bioimaging capability. Human fibroblast cells were incubated with the different concentration solutions of Ir-PYR and imaged after 18 hours using confocal fluorescence microscopy. With long wavelength excitation and emission parameters (λex = 480 nm; λem = 645 nm) compatible with the spectral properties of the complex, it was clearly evident (Fig. 2) that the deep red emission of Ir-PYR was highly amenable to confocal fluorescence microscopy.
Human derived skin fibroblast cells lines were obtained from the Coriell Cell Repository (GM05399, Camden, NJ). Cells were cultured as monolayers in Dulbecco's modified Eagles medium (DMEM, Sigma, UK) supplemented with 10% fetal bovine serum (FBS, PAN-Biotech, Aidenbach, Germany) and 1% L-glutamine in a humidified incubator with 5% CO2 at 37 °C. For all imaging experiments low passage cells (P10-15) were seeded in 8-well chamber slides (Thistle, IB-80826) at a density of 15 000 cells in 250 μL of media.
Stock solutions were diluted to the stated concentrations in cell culture medium for incubation with fibroblasts. The equivalent amount of DMSO (<0.5% total volume) was added to controls for comparison. For nuclear visualisation cells were counterstained for 10 minutes with Hoechst 33342 diluted in cell culture media (1 μL mL^–1, Thermo Fisher, UK). For non-live imaging, cells were fixed in cold 4% paraformaldehyde for 10 min at room temperature and rinsed with PBS. For live-cell colocalization studies, cells were incubated with Ir-PYR for 12 hours prior to counterstaining with Hoechst 33342, and either LysoTracker-green DND-26 (L7528, Thermo Fisher, UK), or CYTO-ID Autophagy detection kit 2.0 (175–0050, Enzo Life Sciences, UK), as per the manufacturer's instructions. Briefly, LysoTracker was diluted in cell culture media to a final concentration of 200 nM and left for 15 min at 37 °C. […]

Human fibroblasts = assay: Resazurin cell viability / metabolic activity assay; format: cell-based
Description: Fig. 3 Ir-PYR is cytotoxic at 20 μM and above. Human fibroblasts were incubated with various concentrations (0 or DMSO only, 5, 20, 50, 80, 100 μM) of either Ir-CMYC (A) or Ir-PYR (B) for 18 hours. Resazurin was added to cells, and after a 4 hour incubation the relative fluorescence intensity was measured (λex = 530 nm; λem = 580 nm). Ir-PYR treated cells (>20 μM) show reduced conversion of resazurin to the fluorescent resorufin indicating reduced cell viability.
Human derived skin fibroblast cells lines were obtained from the Coriell Cell Repository (GM05399, Camden, NJ). […]
Human fibroblasts were plated at 10 000 cells per well of a 96-well plate (Cellbind) and treated with the indicated concentrations of Ir-PYR, Ir-CMYC or DMSO. […] After a 4 hour incubation at 37 °C, fluorescence was determined using a Molecular Devices Spectramax Gemini EM plate reader (λex = […]; λem = 585 nm).
Human fibroblasts were plated at 10 000 cells per well of a 96-well plate and treated with the various concentrations of Ir-PYR, Ir-CMYC (5, 20, 80, 50, 100 μM) or the highest volume of equivalent of DMSO only. […] After a 4 hour incubation at 37 °C, fluorescence was determined using a Molecular Devices Spectramax Gemini EM plate reader (λex = 530 nm; λem = 580 nm).

human fibroblast cells [3] = assay: Immunocytochemistry with cell membrane permeabilisation (retention of red emission); format: cell-based; conditions: fluorescence microscopy imaging
From the text: To investigate whether the NLS was cleaved off Ir-CMYC prior to translocation to the nucleus, an immunoassay was trialled using an antibody raised against c-Myc.

[4] = Freeze-thaw stability of DMSO stock solutions; format: physicochemical; conditions: 10 mM stock in DMSO stored at –20 °C
fish sperm DNA = assay: Circular dichroism / UV-vis titration with fish sperm DNA (multiple independent binding sites model); conditions: Table S1; buffer 25 mM MOPS, 50 mM NaCl, 1 mM EDTA, 25 °C; n restricted to 3 base pairs
Description: In view of the nuclear localisation of Ir-CMYC, we also considered the potential role that affinity to DNA may play. To explore DNA binding of these Ir(III) complexes, UV-vis and circular dichroism titrations were carried out in buffer (25 mM MOPS, 50 mM NaCl, 1 mM EDTA) at 25 °C (Fig. S6, ESI ^†). To quantify the affinity of Ir-PYR for fish sperm DNA, titration curves at 400 and 493 nm were extracted from the circular dichroism data (Fig. 6). Similarly, for Ir-CMYC, titration curves at 373 and 493 nm were extracted from the circular dichroism data. The binding data were analysed globally (Table S1 ^†) in terms of the multiple independent binding sites model, explicitly taking into account the dilution of the iridium complex during the titration.[28] […]
MOPS buffer was prepared by dissolving MOPS (3-(N-morpholino)propanesulfonic acid, CAS[1132-61-2]), NaCl, and EDTA (ethylenediaminetetraacetic acid disodium salt dihydrate, CAS[6381-92-6]) (all obtained from Fisher and used as supplied) in deionised water (Elga Purelab Flex), adjusting the pH to 7.0 using a NaOH solution (pH of the buffer was determined using a Hanna Instruments pH210 microprocessor pH meter with a VWR simple junction universal combined pH/reference electrode) and making up the solution to 0.5 litre. […]

## PAAKRVKLD [Ir-CMYC, NLS peptide … functionalised at N-terminus with cyclometalated iridium(III) quinoxaline/bipyridine complex]
[1]; aqueous solution stored at 25 °C in light, read-out UV-vis absorption
  UV-vis absorption spectra at 0, 24, 48 and 72 h (chemical stability in water): superimposable
[1]; inferred from superimposable UV-vis spectra of aqueous solution over 72 h, 25 °C
  solubility in water: excellent solubility
Human fibroblast cells [2]; 1–5 μM, 18 h, confocal microscopy
  uptake / staining at 1–5 μM: No uptake or staining
Human fibroblast cells [2]; 18–24 h incubation, confocal, co-localisation with Hoechst 33342, n = 2
  concentration giving good cell uptake and nuclear localisation: 80 to 100 µM
Human fibroblast cells [2]; 20–50 μM, 18 h, confocal microscopy
  staining at 20–50 μM: weak punctate staining
Human fibroblasts; 5–100 μM, 18 h incubation, resazurin
  cytotoxicity: No cytotoxicity was observed; also recorded: essentially non-toxic
Human fibroblasts; 24 hours after incubation, resazurin cell death assay
  toxicity: changes in cellular morphology or mitochondrial activity: no (or minimal) toxicity
Human fibroblast cells [3]
  red emission in cells after immunocytochemistry procedure which permeabilises the cell membrane: no longer evident
[4]
  effect of 3 freeze–thaw cycles on compound signal: did not appear to reduce the compound signal
Fish sperm DNA
  K (fitted equilibrium constant, binding to FS DNA): 4.5 ± 1.0 103 M-1
